Laboratory results taken from patent US20220220214A1 (AB INITIO BIOTHERAPEUTICS, published 2022).
Blank lines part the entries; values can stand above or below the binder they belong to.

What was measured:
[1] = biological target: T1, apelin (APJ) receptor on APJ-expressing cells (Homo sapiens (Human), UniProt P35414 1-380); assay: cell-based or functional assay
T1 sequence: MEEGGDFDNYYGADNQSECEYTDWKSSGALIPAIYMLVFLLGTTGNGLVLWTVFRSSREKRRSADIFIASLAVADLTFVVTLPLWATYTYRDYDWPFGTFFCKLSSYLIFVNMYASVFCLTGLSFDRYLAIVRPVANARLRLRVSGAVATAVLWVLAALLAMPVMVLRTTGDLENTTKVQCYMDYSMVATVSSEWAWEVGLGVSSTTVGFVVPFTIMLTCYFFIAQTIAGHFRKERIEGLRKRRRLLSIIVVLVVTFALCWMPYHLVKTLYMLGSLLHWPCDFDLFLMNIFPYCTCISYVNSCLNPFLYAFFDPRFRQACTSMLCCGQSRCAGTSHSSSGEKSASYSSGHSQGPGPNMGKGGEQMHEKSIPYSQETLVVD

[2] = biological target: T1, apelin (APJ) receptor on APJ-expressing …; assay: method not stated (Example 2)
[3] = biological target: T2, mouse APJ receptor expressed on CT26 cells (mouse, UniProt Q9WV08 1-377); assay: binding to the surface of CT26 cells
T2 construct: whole, on cells
T2 sequence (looked up): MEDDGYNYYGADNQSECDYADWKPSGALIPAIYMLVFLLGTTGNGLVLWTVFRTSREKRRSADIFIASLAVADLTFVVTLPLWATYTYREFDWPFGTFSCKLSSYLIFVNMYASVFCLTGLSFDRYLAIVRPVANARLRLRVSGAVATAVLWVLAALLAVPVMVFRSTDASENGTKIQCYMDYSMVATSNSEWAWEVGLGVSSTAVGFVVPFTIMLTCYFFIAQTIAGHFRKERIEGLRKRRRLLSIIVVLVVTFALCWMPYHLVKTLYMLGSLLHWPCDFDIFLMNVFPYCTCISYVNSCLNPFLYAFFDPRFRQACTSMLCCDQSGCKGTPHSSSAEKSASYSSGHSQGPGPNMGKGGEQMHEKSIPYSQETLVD

Fold suppression (saturated), β-arrestin signaling [1]: 8.5 fold | Ki [2]: 39 nM
B1: VHH-23 (VHH)
VHH: QVQLQESGGGLVQAGGSLRLSCAASGNISPFRAMGWYRQAPGKEREFVAAINTGAITNYADSVKGRFTISRDNAKNTVYLQMNSLKPEDTAVYYCAASCRAYASRIDLFSYHTYWGQGTQVTVSS
notes: Nanobody

Fold suppression (saturated), β-arrestin signaling [1]: 5.9 fold | Kd [2]: 13 nM
B2: VHH-22 (VHH)
VHH: QVQLQESGGGLVQAGGSLRLSCAASGNIFRGRVMGWYRQAPGKEREFVAGIDYGASTNYADSVKGRFTISRDNAKNTVYLQMNSLKPEDTAVYYCAARLSERRRLEGYWSAVHVYWGQGTQVTVSS
notes: Nanobody

Kd [3]: ~100 nM
B3: VHH-21 (VHH)
VHH: QVQLQESGGGLVQAGGSLRLSCAASGSISVGYLMGWYRQAPGKERELVAGINYGSNTYYADSVKGRFTISRDNAKNTVYLQMNSLKPEDTAVYYCAASQRRAYAARIDLFSYHTYWGQGTQVTVSS
notes: Nanobody; VHH-21-Fc (aglycosylated human IgG1 Fc) was used in vivo; also called negative allosteric modulator VHH-21
